Experimental findings from PMC4072346 are described below.

Substrate in the data set: O=[N+]([O-])c1ccc(OP(=O)(O)O)cc1
Put plainly: purified protein. Type of data set: biochemical, Homo sapiens. The following applies: pH 7.5.

B1: PHLPP1 (Homo sapiens) (protein)
chain: PRLVLDHKTLELLNNIRCFKIDQPSTGDASGAPAVWSHGYTEASGVKNKLCVAALSVNNFCDNREALYGVFDGDRNVEVPYLLQCTMSDILAEELQKTKNEEEYMVNTFIVMQRKLGTAGQKLGGAAVLCHIKHDPVDPGGSFTLTSANVGKCQTVLCRNGKPLPLSRSYIMSCEEELKRIKQHKAIITEDGKVNGVTESTRILGYTFLHPSVVPRPHVQSVLLTPQDEFFILGSKGLWDSLSVEEAVEAVRNVPDALAAAKKLCTLAQSYGCHDSISAVVVQLSVTEDSFCCCELSAGGAVPPPSPGIFPPSVNMVIKDRPSDGLGVPSSSSGMASEISSELSTSEMSSEVGSTASDEPPPGA
On to B1, for which the Km entry is given as “(2.1 ± 0.2) × 10^–3 M”; the kcat (as a rule, the maximal rate divided by the concentration of active sites) worked out at 0.0018 ± 0.0003 s⁻¹; the kcat/Km (usually the second-order rate constant that governs catalysis at low substrate concentration) stood at 0.9 ± 0.2 M⁻¹ s⁻¹.

B2: PHLPP2 (Homo sapiens) (protein)
chain: SHGLAEMAGQRNKLCVSALAMDSFAEGVGAVYGMFDGDRNEELPRLLQCTMADVLLEEVQQSTNDTVFMANTFLVSHRKLGMAGQKLGSSALLCYIRPDTADPASSFSLTVANVGTCQAVLCRGGKPVPLSKVFSLEQDPEEAQRVKDQKAIITEDNKVNGVTCCTRMLGCTYLYPWILPKPHISSTPLTIQDELLILGNKALWEHLSYTEAVNAVRHVQDPLAAAKKLCTLAQSYGCQDNVGAMVVYL
Take B2: the Km entry is recorded as “(1.3 ± 0.2) × 10^–3 M”, the kcat turned out to be 0.37 ± 0.08 s⁻¹ and the kcat/Km is 285 ± 9 M⁻¹ s⁻¹.
